Results reported in the supplement of paper PMC10567573.

B1: CDC34 (parent)
chain: GGYFKARLKFPIDYPYSPPAFRFL

Variants of: B1
Experiment: protein stability index of a GFP-peptide fusion (GPS, HEK-293T) (PSI 1-6); higher = more stable
Details: c terminus: a fixed tail appended
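Also: lentivirally expressed fusions sorted by FACS into six bins by GFP to DsRed ratio, PSI derived from sequencing read proportions per bin multiplied by bin number.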

Variant | protein stability index
GGYFKARLKFPIDYPYIPPAFRFL [S17I] | 3.04
GGYFKARLKFPIDYPYWPPAFRFL [S17W] | 2.82
GGYFKARLKFPIDYPYHPPAFRFL [S17H] | 3.25
GGYFKARLKFPIDYPYDPPAFRFL [S17D] | 2.77
GGYFKARLKFPIDYPYFPPAFRFL [S17F] | 2.93
GGYFKARLKFPIDYPYKPPAFRFL [S17K] | 3.04
GGYFKARLKFPIDYPYEPPAFRFL [S17E] | 3.71
GGYFKARLKFPIDYPYNPPAFRFL [S17N] | 3.85
GGYFKARLKFPIDYPYGPPAFRFL [S17G] | 2.85
GGYFKARLKFPIDYPYVPPAFRFL [S17V] | 4.24
GGYFKARLKFPIDYPYMPPAFRFL [S17M] | 2.9
GGYFKARLKFPIDYPYRPPAFRFL [S17R] | 3.12
GGYFKARLKFPIDYPYYPPAFRFL [S17Y] | 2.44
GGYFKARLKFPIDYPYQPPAFRFL [S17Q] | 2.58
GGYFKARLKFPIDYPYSEPAFRFL [P18E] | 2.34
GGYFKARLKFPIDYPYSKPAFRFL [P18K] | 3.31
GGYFKARLKFPIDYPYSCPAFRFL [P18C] | 3.4
GGYFKARLKFPIDYPYSLPAFRFL [P18L] | 2.54
GGYFKARLKFPIDYPYSGPAFRFL [P18G] | 2.4
GGYFKARLKFPIDYPYSHPAFRFL [P18H] | 2.33
GGYFKARLKFPIDYPYSFPAFRFL [P18F] | 2.42
GGYFKARLKFPIDYPYSDPAFRFL [P18D] | 2.34
GGYFKARLKFPIDYPYSAPAFRFL [P18A] | 2.96
GGYFKARLKFPIDYVYSPPAFRFL [P15V] | 2.21

Variant | protein stability index
GGYFKARLKFPIDYTYSPPAFRFL [P15T] | 2.51
GGYFKARLKFPIDYNYSPPAFRFL [P15N] | 2.31
GGYFKARLKFPIDYMYSPPAFRFL [P15M] | 3.04
GGYFKARLKFPIDYYYSPPAFRFL [P15Y] | 2.56
GGYFKARLKFPIDYIYSPPAFRFL [P15I] | 2.75
GGYFKARLKFPIDYAYSPPAFRFL [P15A] | 3.19
GGYFKARLKFPIDYHYSPPAFRFL [P15H] | 3.92
GGYFKARLKFPIDYGYSPPAFRFL [P15G] | 2.62
GGYFKARLKFPIDYFYSPPAFRFL [P15F] | 3.14
GGYFKARLKFPIDYWYSPPAFRFL [P15W] | 2.9
GGYFKARLKFPIDYSYSPPAFRFL [P15S] | 3.76
GGYFKARLKFPIDYCYSPPAFRFL [P15C] | 3.05
GGYFKARLKFPIDYLYSPPAFRFL [P15L] | 2.92
GGYFKARLKFPIDYEYSPPAFRFL [P15E] | 2.84
GGYFKARLKFPIDYQYSPPAFRFL [P15Q] | 2.06
GGYFKARLKFPIDYDYSPPAFRFL [P15D] | 3.29
GGYFKARLKFPIDYPASPPAFRFL [Y16A] | 2.38
GGYFKARLKFPIDYPWSPPAFRFL [Y16W] | 2.43
GGYFKARLKFPIDYPNSPPAFRFL [Y16N] | 2.71
GGYFKARLKFPIDYPMSPPAFRFL [Y16M] | 1.99
GGYFKARLKFPIDYPDSPPAFRFL [Y16D] | 1.57
GGYFKARLKFPIDYPCSPPAFRFL [Y16C] | 2.73
GGYFKARLKFPIDYPFSPPAFRFL [Y16F] | 2.86
GGYFKARLKFPIDYPGSPPAFRFL [Y16G] | 2.83

Variant | protein stability index
GGYFKARLKFPIDYPRSPPAFRFL [Y16R] | 2.6
GGYFKARLKFPIDYPLSPPAFRFL [Y16L] | 2.18
GGYFKARLKFPIDYPKSPPAFRFL [Y16K] | 3.31
GGYFKARLKFPIDYPHSPPAFRFL [Y16H] | 3.2
GGYFKARLKFPIDYPVSPPAFRFL [Y16V] | 3.55
GGYFKARLKFPIDYPTSPPAFRFL [Y16T] | 2.81
GGYFKARLKFPIDYPESPPAFRFL [Y16E] | 2.23
GGYFKARLKFPIDYPISPPAFRFL [Y16I] | 3.09
GGYFKARLKFPIDYPSSPPAFRFL [Y16S] | 2.6
GGYFKARLKFPIDRPYSPPAFRFL [Y14R] | 2.09
GGYFKARLKFPIDLPYSPPAFRFL [Y14L] | 2.75
GGYFKARLKFPIDGPYSPPAFRFL [Y14G] | 1.88
GGYFKARLKFPIDMPYSPPAFRFL [Y14M] | 2.8
GGYFKARLKFPIDNPYSPPAFRFL [Y14N] | 2.47
GGYFKARLKFPIDDPYSPPAFRFL [Y14D] | 3.03
GGYFKARLKFPIDKPYSPPAFRFL [Y14K] | 2.75
GGYFKARLKFPIDQPYSPPAFRFL [Y14Q] | 1.82
GGYFKARLKFPIDIPYSPPAFRFL [Y14I] | 2.16
GGYFKARLKFPIDCPYSPPAFRFL [Y14C] | 2.57
GGYFKARLKFPIDSPYSPPAFRFL [Y14S] | 4.54
GGYFKARLKFPIDVPYSPPAFRFL [Y14V] | 2.7
GGYFKARLKFPIDEPYSPPAFRFL [Y14E] | 2.06
GGYFKARLKFPRDYPYSPPAFRFL [I12R] | 1.7
GGYFKARLKFPWDYPYSPPAFRFL [I12W] | 2.12

Variant | protein stability index
GGYFKARLKFPVDYPYSPPAFRFL [I12V] | 1.8
GGYFKARLKFPSDYPYSPPAFRFL [I12S] | 3.06
GGYFKARLKFPMDYPYSPPAFRFL [I12M] | 1.39
GGYFKARLKFPYDYPYSPPAFRFL [I12Y] | 3.17
GGYFKARLKFPNDYPYSPPAFRFL [I12N] | 2.22
GGYFKARLKFPICYPYSPPAFRFL [D13C] | 2.51
GGYFKARLKFPIKYPYSPPAFRFL [D13K] | 3.03
GGYFKARLKFPIFYPYSPPAFRFL [D13F] | 3.1
GGYFKARLKFPIQYPYSPPAFRFL [D13Q] | 2.73
GGYFKARLKFPIGYPYSPPAFRFL [D13G] | 4.23
GGYFKARLKFPIEYPYSPPAFRFL [D13E] | 1.97
GGYFKARLKFPITYPYSPPAFRFL [D13T] | 2.82
GGYFKARLKFPILYPYSPPAFRFL [D13L] | 3.38
GGYFKARLKFPIRYPYSPPAFRFL [D13R] | 3.03
GGYFKARLKFPIHYPYSPPAFRFL [D13H] | 3.16
GGYFKARLKFPISYPYSPPAFRFL [D13S] | 2.34
GGYFKARLKFPIVYPYSPPAFRFL [D13V] | 3.06
GGYFKARLKFPIAYPYSPPAFRFL [D13A] | 3.56
GGYFKARLKFPIWYPYSPPAFRFL [D13W] | 2.7
GGYFKARLKFPINYPYSPPAFRFL [D13N] | 2.64
GGYFKARLKFPIMYPYSPPAFRFL [D13M] | 1.68
GGYFKARLKFPIIYPYSPPAFRFL [D13I] | 3.04
